# Assay results taken from patent publication US20220041752A1 (Bayer, published 2022).
# T1: human tissue factor pathway inhibitor (TFPI) (human, UniProt P10646 29-304)
# T1 construct: also called human TFPI
# T1 sequence: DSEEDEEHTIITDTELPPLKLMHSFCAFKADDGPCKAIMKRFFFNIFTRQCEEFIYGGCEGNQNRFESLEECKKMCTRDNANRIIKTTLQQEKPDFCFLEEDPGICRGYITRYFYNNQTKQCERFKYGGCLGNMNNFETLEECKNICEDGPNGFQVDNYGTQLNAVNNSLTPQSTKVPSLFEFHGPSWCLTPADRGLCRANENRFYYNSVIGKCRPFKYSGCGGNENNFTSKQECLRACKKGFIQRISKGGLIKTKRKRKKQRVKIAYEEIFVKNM
# B1: Fab B (Fab, V domains shown)
# VH: QVELVESGGGLVQPGGSLRLSCAASGFTFRSYGMSWVRQAPGKGLEWVSSIRGSSSSTYYADSVKGRFTISRDNSKNTLYLQMNSLRAEDTAVYYCARLYRYWFDYWGQGTLVTVSS
# VL: DIELTQPPSVSVAPGQTARISCSGDNLRNYYAHWYQQKPGQAPVVVIYYDNNRPSGIPERFSGSNSGNTATLTISGTQAEDEADYYCQSWDDGVPVFGGGTKLTVLG
# notes: also called monoclonal TFPI antibody Fab B
# B2: Fab A (Fab, V domains shown)
# VH: QVQLQQSGPGLVKPSQTLSLTCAISGDSVSSNSAAWSWIRQSPGRGLEWLGIIYKRSKWYNRYAVSVKSRITINPDTSKNQFSLQLNSVTPEDTAVYYCARWHSDKHWGFDYWGQGTLVTVSS
# VL: DIVMTQSPLSLPVTPGEPASISCRSSQSLVFSDGNTYLNWYLQKPGQSPQLLIYKGSNRASGVPDRFSGSGSGTDFTLKISRVEAEDVGVYYCQQYDSYPLTFGQGTKVEIKR
# notes: Expressed in E. coli; also called monoclonal antibody Fab A
# Assays:
# [1] = molecular target: human tissue factor pathway inhibitor (TFPI) (human) (UniProt P10646); test: SPR (Biacore) blocking assay: human TFPI immobilised on a CM5 chip, control Fab at 1 ug/ml injected before 5 ug/mL FVIIa/TF complex; this bar is the reference set to 100% by definition, so FVIIa/TF binding is not reduced
# [2] = molecular target: human tissue factor pathway inhibitor (TFPI) (human) (UniProt P10646); test: SPR (Biacore) blocking assay: human TFPI immobilised on a CM5 chip, control Fab at 1 ug/ml injected before 5 ug/mL FXa; this bar is the reference set to 100% by definition, so FXa binding is not reduced
# [3] = molecular target: T1, human tissue factor pathway inhibitor …; test: assay and TFPI form not stated; reference is the wild type with hc_Lys99
# [4] = molecular target: T1, human tissue factor pathway inhibitor …; test: assay and TFPI form not stated; reference is the wild type with hc_Asp62
molecule,measurement,setting,value
Ctrl Fab,FVIIa/TF binding (% of the signal after control Fab),[1],100%
same,FXa binding (% of the signal after control Fab),[2],100%
B1,fold affinity increase against wild type (hc_Lys99),[3],20 fold
B2,fold affinity increase against wild type (hc_Asp62),[4],120 fold
